Here are results for one molecule from paper PMC6677171 (2019).

In this assay the target is Mis16 (S. pombe), full length, affinity tag removed (S. pombe, UniProt O94244 1-430). Nature of the assay: ITC.

Bounds are passed on as bounds.

Sequence of Mis16 (S. pombe), full length, affinity tag removed (O94244 whole entry): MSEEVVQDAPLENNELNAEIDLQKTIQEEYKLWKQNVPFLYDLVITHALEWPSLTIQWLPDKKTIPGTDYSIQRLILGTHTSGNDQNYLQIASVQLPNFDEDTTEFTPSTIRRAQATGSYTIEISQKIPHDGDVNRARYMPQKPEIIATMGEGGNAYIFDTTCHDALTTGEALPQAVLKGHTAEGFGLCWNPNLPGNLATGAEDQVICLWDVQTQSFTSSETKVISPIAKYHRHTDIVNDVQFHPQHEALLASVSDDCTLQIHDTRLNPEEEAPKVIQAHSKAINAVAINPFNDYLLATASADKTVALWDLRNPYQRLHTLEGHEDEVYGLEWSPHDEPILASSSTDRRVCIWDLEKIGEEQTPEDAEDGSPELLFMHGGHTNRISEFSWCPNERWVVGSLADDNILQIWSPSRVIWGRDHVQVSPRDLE

One may read the Kd as the free concentration of one partner at which half of the binding sites on the other are occupied at equilibrium, for simple one-to-one binding. Molecule LHNRVFLRANVRAVKM [Mis19 C-terminal peptide (residues 97–112) R105A] returned a Kd above 1 µM.
